Test results: paper PMC4763223
One block for each substance: values may come before it.

Tests used:
Experiment in all cases: GEMMA (gas-phase electrophoretic mobility macromolecule analysis); DNA-free protein; equilibrated into 100 mM ammonium acetate pH 7.8, diluted to 20 mM ammonium acetate and 0.005% Tween-20; low flow-rate (pressure 2 Psi); non-tagged Kat1 at 0.085 mg/ml
[1] = molecular target: Glutathione S-transferase (GST) alone
[2] = molecular target: Glutathione S-transferase (GST)-tagged Kat1+G (Kluyveromyces lactis hAT-transposase 1) (Kluyveromyces lactis)
[3] = molecular target: non-tagged Kat1 (GST-tag cleaved from GST-Kat1 with thrombin) (Kluyveromyces lactis)

Chain of Glutathione S-transferase (GST) alone (P08515 2-218): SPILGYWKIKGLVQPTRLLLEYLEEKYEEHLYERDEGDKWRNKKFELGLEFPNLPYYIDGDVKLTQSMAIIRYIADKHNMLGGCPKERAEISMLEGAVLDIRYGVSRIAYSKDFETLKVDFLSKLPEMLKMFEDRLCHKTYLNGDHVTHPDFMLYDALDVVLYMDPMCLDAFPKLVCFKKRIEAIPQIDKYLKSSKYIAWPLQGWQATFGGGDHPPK

stoichiometry N [1]: 2
Substance: Glutathione S-transferase (GST) alone (enzyme)

stoichiometry N [2]: 6
Substance: Glutathione S-transferase (GST)-tagged Kat1+G (Kluyveromyces lactis hAT-transposase 1) (enzyme)

stoichiometry N [3]: 6
Substance: non-tagged Kat1 (GST-tag cleaved from GST-Kat1 with thrombin) (enzyme)
